Measured values from paper PMC6546705.

Biological target: recombinant MnSOD-WT (manganese superoxide dismutase, wild type) (UniProt P04179)
Assay: SEC; Superdex 200 Increase 10/300 GL, 50 mM potassium phosphate pH 7.8; size from a calibration curve of gel filtration standards

stoichiometry N: 4
Substance: recombinant MnSOD-WT (manganese superoxide dismutase, wild type) (from UniProt P04179 25-222) (enzyme)
